The text below walks through data of the RNAGym collection of RNA variant scans (doi:10.7554/elife.90254).

To fix the notation:
B1: OR4K15 (parent)
chain: GUUAACGGUCAUAGGCCAUGGAAACUAGGAGCACCAUUUCGCUGCCAGUGAAGAAAUGAACAAAGAAAAUCUGGGCCAGGCAGGCAUCAAAAGAAAUAGUCUUGCGCUCAACCAGAAAGUCUGUAAUCAUUUUAAGGGUA

In the data set the parent is B1. The experiment in a line: self-cleavage, relative activity (ratio to wild type); higher = more cleavage; in vitro, sequencing; the parent is a self-cleaving ribozyme.
In the case of GUUAACGGUCAUAGGCCAUGGAAACUAGGAGCACCGUUUCGCUGCCAGUGAAGAAAUGAACAAAGAAAAUCUGGGCCAGGCAGGCAUCAAAAGAAAUAGUCUUGCGCUCAAUCAGAAAGUCUGUAAUCAUUUUAAGGGUA [A36G C112U], the self-cleavage came out at 0.03. Regarding GUUAACGGUCAUAGGCCAUGGAAACUAGGAGCACCGCUUCGCUGCCAGUGAAGAAAUGAACAAAGAAAAUCUGGGCCAGGCAGGCAUCAAAAGAAAUAGUCUUGCGCUCAACCAGAAAGUCUGUAAUCAUUUUAAGGGUA [A36G U37C], the self-cleavage was 1.71. The figure for GUUAACGGUCAUAGGCCAUGGAAACUAGGAGCACCGUUUCGCUGCCAGUGAAGAAAUGAACAAAGAAAAUCUGGGCCAGGCAGGCAUCAAAAGAAAUAGUCUUGCGCUCAACCAGAGAGUCUGUAAUCAUUUUAAGGGUA [A36G A117G] is 2.27. Consider GUUAACGGUCAUAGGCCAUGGAAACUAGGAGCACCGUUUCGCUGCCAGUGAAGAAAUGAACAAAGAAAAUCUGGGCCAGGCAGGCAUCAAAAGAAAUAGUCUUGCGCUCAACCAGAUAGUCUGUAAUCAUUUUAAGGGUA [A36G A117U], for which the self-cleavage is 1.29. Consider GUUAACGGUCAUAGGCCAUGGAAACUAGGAGCACCGUUUCGCUGCCAGUGAAGAAAUGAACAAAGAAAAUCUGGGCCAGGCAGGCAUCAAAAGAAAUAGUCUUGCGCUCAACCAGAAAGUCUGUGAUCAUUUUAAGGGUA [A36G A125G], for which the self-cleavage was determined as 0.6.

For the variant GUUAACGGUCAUAGGCCAUGGAAACUAGGAGCACCGUUUCGCUGCCAGUGAAGAAAUGAACAAAGAAAAUCUGGGCCAGGCAGGCAUCAAAAGAGAUAGUCUUGCGCUCAACCAGAAAGUCUGUAAUCAUUUUAAGGGUA [A36G A95G], the self-cleavage was 2.04.

As for GUUAACGGUCAUAGGCCAUGGAAACUAGGAGCACCGUUUCGCUGCCAGUGAAGAAAUGAACAAAGAAAAUCUGGGCCAGGCAGGCAUCAAAAGAAAUAGUCUUGCGCUCAACCAGAAAGUCUGUAAUCAUUUAAAGGGUA [A36G U133A], the self-cleavage stood at 2.28. Consider GUUAACGGUCAUAGGCCAUGGAAACUAGGAGCACCGUUUCGCUGCCAGUGAAGAAAUGAACAAAGAAAAUCUGGGCCAGGCAGGCAUCAAAAGAACUAGUCUUGCGCUCAACCAGAAAGUCUGUAAUCAUUUUAAGGGUA [A36G A96C], for which the self-cleavage turned out to be 0.95. Turning to GUUAACGGUCAUAGGCCAUGGAAACUAGGAGCACCGUUUCGCUGCCAGUGAAGAAAUGAACAAAGAAAAUCUGGGCCAGGCAGGCAUCAAAAGAAAUAGUCUUGCGCUCAACCAGAAAGUCUGUAAUCAUUUUAAAGGUA [A36G G136A], the self-cleavage came out at 1.79. In the case of GUUAACGGUCAUAGGCCAUGGAAACUAGGAGCACCGUUUCGCUGCCAGUGAAGAAAUGAACAAAGAAAAUCUGGGCCAGGCAGGCAUCAAAAGAAAUAGUCUUGCGCUCAACCAGAAAGCCUGUAAUCAUUUUAAGGGUA [A36G U120C], the self-cleavage was 1.28. Under GUUAACGGUCAUAGGCCAUGGAAACUAGGAGCACCGUUUCGCUGCCAGUGAAGAAAUGAACAAAGAAAAUCUGGGCCAGGCAGGCAUCAAAAGAAAUAGUCUUGCGCUCAACCAGAAAGACUGUAAUCAUUUUAAGGGUA [A36G U120A] stands 2.61. Turning to GUUAACGGUCAUAGGCCAUGGAAACUAGGAGCACCGUUUCGCUGCCAGUGAAGAAAUGAACAAAGAAAAUCUGGGCCAGGCAGGCAUCAAAAGAAAUAGUCUUGCGCUCAACCAGAAAGGCUGUAAUCAUUUUAAGGGUA [A36G U120G], the self-cleavage is 1.29.

Turning to GUUAACGGUCAUAGGCCAUGGAAACUAGGAGCACCGUUUCGCUGCCAGUGAAGAAAUGAACAAAGAAAAUCUGGGCCAGGCAGGCAUCAAAAGAAAUAGUCUUGCGCUCAACCAGAAAGUCUGUAAUCGUUUUAAGGGUA [A36G A129G], the self-cleavage was 1.3. In the case of GUUAACGGUCAUAGGCCAUGGAAACUAGGAGCACCGUUUCGCUGCCAGUGAAGAAAUGAACAAAGAAAAUCUGGGCCAGGCAGGCAUCAAAAGAAAUUGUCUUGCGCUCAACCAGAAAGUCUGUAAUCAUUUUAAGGGUA [A36G A98U], the self-cleavage is 2.12.

For the variant GUUAACGGUCAUAGGCCAUGGAAACUAGGAGCACCGUUUCGCUGCCAGUGAAGAAAUGAACAAAGAAAAUCUGGGCCAGGCAGGCAUCAAAAGAAAUGGUCUUGCGCUCAACCAGAAAGUCUGUAAUCAUUUUAAGGGUA [A36G A98G], the self-cleavage stood at 1.54.

Turning to GUUAACGGUCAUAGGCCAUGGAAACUAGGAGCACCGUUUCGCUGCCAGUGAAGAAAUGAACAAAGAAAAUCUGGGCCAGGCAGGCAUCAAAAGAAAUAGUCUUGCGCUCAACCGGAAAGUCUGUAAUCAUUUUAAGGGUA [A36G A114G], the self-cleavage worked out at 1.06.

As to GUUAACGGUCAUAGGCCAUGGAAACUAGGAGCACCGUUUCGCUGCCAGUGAAGAAAUGAACAAAGAAAAUCUGGGACAGGCAGGCAUCAAAAGAAAUAGUCUUGCGCUCAACCAGAAAGUCUGUAAUCAUUUUAAGGGUA [A36G C76A], the self-cleavage was determined as 0.12.

GUUAACGGUCAUAGGCCAUGGAAACUAGGAGCACCGUUUCGCUGCCAGUGAAGAAAUGAACAAAGAAAAUCUGGGCCAGGCAGGCAUCAAAAGAAAUAGUCCUGCGCUCAACCAGAAAGUCUGUAAUCAUUUUAAGGGUA [A36G U102C]: the self-cleavage worked out at 1.88.

For GUUAACGGUCAUAGGCCAUGGAAACUAGGAGCACCGUUUCGCUGCCAGUGAAGAAAUGAACAAAGAAAAUCUGGGCCAGGCAGGCAUCAAAAGAAACAGUCUUGCGCUCAACCAGAAAGUCUGUAAUCAUUUUAAGGGUA [A36G U97C], the self-cleavage is 2.04. The figure for GUUAACGGUCAUAGGCCAUGGAAACUAGGAGCACCGUUUCGCUGCCAGUGAAGAAAUGAACAAAGAAAAUCUGGGCCAGGCAGGCAUCAAAAGAAAUAGUCUUGCGCUCAACCAGAAAGUCUGUAGUCAUUUUAAGGGUA [A36G A126G] is 1.48.

As for GUUAACGGUCAUAGGCCAUGGAAACUAGGAGCACCGUUUCGCUGCCAGUGAAGAAAUGAACAAAGAAAAUCUGGGCCAGGCAGGCAUCAAAAGAAAUAGUCUUGCGCUCAACCAGAAAGUCUGUAUUCAUUUUAAGGGUA [A36G A126U], the self-cleavage was determined as 1.76. As to GUUAACGGUCAUAGGCCAUGGAAACUAGGAGCACCGUUUCACUGCCAGUGAAGAAAUGAACAAAGAAAAUCUGGGCCAGGCAGGCAUCAAAAGAAAUAGUCUUGCGCUCAACCAGAAAGUCUGUAAUCAUUUUAAGGGUA [A36G G41A], the self-cleavage came to 2.26. Under GUUAACGGUCAUAGGCCAUGGAAACUAGGAGCACCGUUUCGCUGCCAGUGAAGAAAUGAACAAAGAAAAUCUGGGCCAGGCAGGUAUCAAAAGAAAUAGUCUUGCGCUCAACCAGAAAGUCUGUAAUCAUUUUAAGGGUA [A36G C85U] stands 0.98.

Turning to GUUAACGGUCAUAGGCCAUGGAAACUAGGAGCACCUUUUCGCUGCCAGUGAAGAACUGAACAAAGAAAAUCUGGGCCAGGCAGGCAUCAAAAGAAAUAGUCUUGCGCUCAACCAGAAAGUCUGUAAUCAUUUUAAGGGUA [A36U A56C], the self-cleavage was found to be 1.49. In the case of GUUAACGGUCAUAGGCCAUGGAAACUAGGAGCACCGUUUCGCUGCCAGUGAAGAAAUGAACAAAGAAAAUCUGGGCCAGGCAGGCAUCAAAAGGAAUAGUCUUGCGCUCAACCAGAAAGUCUGUAAUCAUUUUAAGGGUA [A36G A94G], the self-cleavage worked out at 1.86. In the case of GUUAACGGUCAUAGGCCAUGGAAACUAGGAGCACCGUUUCGCUGCCAGUGAAGAAAUGAACAAAGAAAACCUGGGCCAGGCAGGCAUCAAAAGAAAUAGUCUUGCGCUCAACCAGAAAGUCUGUAAUCAUUUUAAGGGUA [A36G U70C], the self-cleavage was 0.6.

In the case of GUUAACGGUCAUAGGCCAUGGAAACUAGGAGCACCGUUUCGCUGCCAGUGAAGAAAUGAACAAAGAAAAUCUGGGCCAGGCAGGCAUCAAAAGAAAUAGUCUUGCGCUCAACUAGAAAGUCUGUAAUCAUUUUAAGGGUA [A36G C113U], the self-cleavage is 0.07.

As to GUUAACGGUCAUAGGCCAUGGAAACUAGGAGCACCGUUUCGCUGCCAGUGAAGAAAUGAACAAAGAAAAUCUGGGCCAGGCAGGCAUCAAAAGAAAUAGUCUCGCGCUCAACCAGAAAGUCUGUAAUCAUUUUAAGGGUA [A36G U103C], the self-cleavage was 0.43. In the case of GUUAACGGUCAUAGGCCAUGGAAACUAGGAGCACCUUUUCGCUGCCAGUGAAGAUAUGAACAAAGAAAAUCUGGGCCAGGCAGGCAUCAAAAGAAAUAGUCUUGCGCUCAACCAGAAAGUCUGUAAUCAUUUUAAGGGUA [A36U A55U], the self-cleavage was found to be 0.98. On to GUUAACGGUCAUAGGCCAUGGAAACUAGGAGCACCGUUUCGCCGCCAGUGAAGAAAUGAACAAAGAAAAUCUGGGCCAGGCAGGCAUCAAAAGAAAUAGUCUUGCGCUCAACCAGAAAGUCUGUAAUCAUUUUAAGGGUA [A36G U43C], for which the self-cleavage stood at 1.91.

Regarding GUUAACGGUCAUAGGCCAUGGAAACUAGGAGCACCGUUUCGCAGCCAGUGAAGAAAUGAACAAAGAAAAUCUGGGCCAGGCAGGCAUCAAAAGAAAUAGUCUUGCGCUCAACCAGAAAGUCUGUAAUCAUUUUAAGGGUA [A36G U43A], the self-cleavage is 1.27. Take GUUAACGGUCAUAGGCCAUGGAAACUAGGAGCACCGUUUCGCUGCCAGUGAAGAAAUGAACAAAGAAAAUCUGGACCAGGCAGGCAUCAAAAGAAAUAGUCUUGCGCUCAACCAGAAAGUCUGUAAUCAUUUUAAGGGUA [A36G G75A]: the self-cleavage was found to be 0.09. For the variant GUUAACGGUCAUAGGCCAUGGAAACUAGGAGCACCUUUUCGCUGCCAGUGUAGAAAUGAACAAAGAAAAUCUGGGCCAGGCAGGCAUCAAAAGAAAUAGUCUUGCGCUCAACCAGAAAGUCUGUAAUCAUUUUAAGGGUA [A36U A51U], the self-cleavage is 1.72. On to GUUAACGGUCAUAGGCCAUGGAAACUAGGAGCACCUUUUCGCUGCCAGUGGAGAAAUGAACAAAGAAAAUCUGGGCCAGGCAGGCAUCAAAAGAAAUAGUCUUGCGCUCAACCAGAAAGUCUGUAAUCAUUUUAAGGGUA [A36U A51G], for which the self-cleavage worked out at 1.82.

With GUUAACGGUCAUAGGCCAUGGAAACUAGGAGCACCGUUUCGCUGCCAGUGAAGAAAUGAACAAAGAAAAUCUGGGCCAGGCAGGCAACAAAAGAAAUAGUCUUGCGCUCAACCAGAAAGUCUGUAAUCAUUUUAAGGGUA [A36G U87A], the self-cleavage was determined as 2.26. In the case of GUUAACGGUCAUAGGCCAUGGAAACUAGGAGCACCGUUUCGCUGCCAGUGAAGAAAUGAACAAAGAAAAUCUGGGCCAGGCAGGCACCAAAAGAAAUAGUCUUGCGCUCAACCAGAAAGUCUGUAAUCAUUUUAAGGGUA [A36G U87C], the self-cleavage amounted to 2.04. With GUUAACGGUCAUAGGCCAUGGAAACUAGGAGCACCGUUUCGCUGCCAGUGAAGAAAUGAACAAAGAAAAUCUGGGCCAGGCAGGCAUCAAAAGAAAUAGUCUUGCGCUCAACCAGAAAGUCUGCAAUCAUUUUAAGGGUA [A36G U124C], the self-cleavage is 0.45. In the case of GUUAACGGUCAUAGGCCAUGGAAACUAGGAGCACCGUUUCGCUGCCAGUGAAGAAAUGAACAAAGAAAAUCUGGGCCAGGCAGACAUCAAAAGAAAUAGUCUUGCGCUCAACCAGAAAGUCUGUAAUCAUUUUAAGGGUA [A36G G84A], the self-cleavage was 1.88. As for GUUAACGGUCAUAGGCCAUGGAAACUAGGAGCACCGUUCCGCUGCCAGUGAAGAAAUGAACAAAGAAAAUCUGGGCCAGGCAGGCAUCAAAAGAAAUAGUCUUGCGCUCAACCAGAAAGUCUGUAAUCAUUUUAAGGGUA [A36G U39C], the self-cleavage stood at 0.79. With GUUAACGGUCAUAGGCCAUGGAAACUAGGAGCACCGUUUCGCUGCCAGUGAAGAAAUGAACAAAGAAAAUCUGGGCCAGGCAGGCAUCAAAAGAAAUAGUCUUGCGCUCAACCAGGAAGUCUGUAAUCAUUUUAAGGGUA [A36G A116G], the self-cleavage came out at 0.76.

Consider GUUAACGGUCAUAGGCCAUGGAAACUAGGAGCACCGUUUCGCUGCCAGUGAAGAAAUGAACAAAGAAAAUCUGGGCCAGGCAGGCAUCAAAAGAAAUAGUCUUGCGCCCAACCAGAAAGUCUGUAAUCAUUUUAAGGGUA [A36G U108C], for which the self-cleavage came to 0.01.
